{"source": "paper PMC9565474", "about": "“Evolution avoids a pathological stabilizing interaction in the immune protein S100A9” (Proceedings of the National Academy of Sciences of the …, 2022)", "proteins": {"B1": {"name": "hS100A9/M63F (natural protein, human, UniProt P06702 1-114, looked up)", "chain": "MTSKMSQLERNIETIINTFHQYSVKLGHPDTLNQGEFKELVRKDLQNFLKKENKNEKVIEHIFEDLDTNADKQLSFEEFIMLMARLTWASHEKMHEGDEGPGHHHKPGLGEGTP", "notes": "human S100A9, Uniprot P06702, Cys-free (C3S) background with M63F; 114 residues (residues 1 to 114 named in the NMR structure); 15N or 15N/13C labelled for NMR; also called human S100A9 M63F; F/F"}}, "target": "the molecule itself", "test": "NMR structure; calcium-bound hS100A9/M63F, 0.5 to 1.0 mM dimer, 25 mM Tris, 100 mM NaCl, 10 mM CaCl2 (pH 7.4), 10% D2O, 25 °C or 37 °C; homodimer with chains A and B", "data": [{"protein": "B1", "values": [{"measurement": "binding result", "result": "binds"}]}]}
